The values below come from patent publication US20230382979A1 (ADAPTIVE BIOTECHNOLOGIES, published 2023).

Experiment [1] addresses SARS-CoV-2 spike protein on live virus, strain USA-WA1/2020 (SARS-CoV-2, WA01/2020 strain, UniProt P0DTC2 14-1273). As to the kind of experiment: cell-based or functional assay.
Experiment [2] deals with T1, Receptor-binding domain (RBD) of the SARS-CoV-2 spike protein, WA01/2020 strain (SARS-CoV-2, WA01/2020 strain, UniProt P0DTC2 319-541). As to the kind of experiment: dose-response ELISA on coated antigen. A general note: In an ELISA, binding on a coated surface is turned into a signal by an enzyme label.
Experiment [3] addresses T1, Receptor-binding domain (RBD) of the …. As to the kind of experiment: ELISA, antibody blocks RBD binding to human ACE2.
For experiment [4] the target is unchanged. As to the kind of experiment: SPR (Biacore 8K), antigen immobilized, antibody injected.
For experiment [5], the target named is SARS-CoV-2 spike protein, B1.1.7 (alpha variant), borne on lentiviral pseudovirus (SARS-CoV-2, B1.1.7). As to the kind of experiment: cell-based or functional assay.

B1: antibody 2606 (antibody, V domains shown)
VH: EVQLVESGGGLVKPGGSLRLSCAASGFTFSSYSMNWVRQAPGKGLEWVSSITSSSGYMYYADSVKGRFTISRDNAKNSLYLQLNSLRAEDTAVYYCAKDSAFDLWEVRSYYYVMDVWGQGTTVTVSS
VL: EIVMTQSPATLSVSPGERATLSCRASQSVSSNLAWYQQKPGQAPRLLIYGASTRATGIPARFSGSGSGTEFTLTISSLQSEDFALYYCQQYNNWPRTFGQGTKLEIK
As to B1, the “Live Neut, WA1/2020 IC50 (pM)” value in experiment [1] stood at 474 pM.

B2: antibody 1679 (antibody, V domains shown)
VH: QITLKESGPTLVKPTQTLTLTCTFSGFSLSTVGVGVAWIRQPPGKALEWLALIYWDDDKRYSPSLKSRLTITKDTSKNHVVLTMTNMDPVDTATYYCAHHIIAALVDVWGKGTTVTVSS
VL: QSALTQPASVSGSPGQSITISCTGTSSDVGGNNYVSWYQHHPGEAPKLMIYEVSNRPSGVSNRFSGSKSGNTASLTISGLQAEDEADYYCSSYTTSSTLVVFGGGSKLTVL
B2: the “Live Neut, WA1/2020 IC50 (pM)” value in experiment [1] turned out to be 19 pM. Moreover, it took 0.003 nM to reach a half-maximal effect in experiment [2] (EC50). Moreover, the IC50 (in general, the concentration needed to halve the response being measured) in experiment [3] is 0.07 nM. Also, binding in experiment [4] was characterised by a dissociation constant (Kd) of 1.01 nM.

B3: antibody 2020 (antibody, V domains shown)
VH: QVQLVQSGAEVKKPGASVKVSCKASGYTFTDYFMHWVRQAPGQGLEWMGWVNPLSGGTNFAQKFQGRVTMTSDTSITTVYMELSRLRSDDTAVYYCARDPPLYSSTYGMDVWGQGTTVTVSS
VL: QSALTQPASVSGSPGQSITISCTGTSSDVGAYNYVSWYQQHPGKAPKLMIYDVSDRPSGVSNRFSGSKSGNTASLTISGLQAEDEADYYCSSYTISSSVVFGGGTKLTVL
In the case of B3, the “Pseudo Neut, B1.1.7 IC50 (pM)” value in experiment [5] was determined as 13 pM. Moreover, in experiment [1], the “Live Neut, WA1/2020 IC50 (pM)” value turned out to be 14 pM. For the same molecule, the EC50 – broadly, the concentration giving half of the maximal effect – in experiment [2] was found to be 0.088 nM. The molecule further showed an IC50 in experiment [3] of 1.41 nM. Also, the Kd (usually the concentration at which binding is half-saturated) in experiment [4] was found to be 0.0011 nM.

B4: antibody 2646 (antibody, V domains shown)
VH: QVQLVQSGAEVKKPGASVKVSCKVSGYTLTELSIHWVRQAPGKGLEWMGGFDPEDAETIYAQKFQGRVTMTEDTSTDTAYMELSSLRSEDTAVYYCATATAVAGTVFNYQYHYGLDFWGQGTTVTVSS
VL: not shown
Take B4: in experiment [1], the “Live Neut, WA1/2020 IC50 (pM)” value was 19 pM.

B5: antibody 1231 (antibody, V domains shown)
VH: QVQLVQSGSELKKPGASVKVSCTGYGYTFTSYAMNWVRQAPGQGLEWMGWINTNTGHPAYAQGFTGRFVFSLDSSVSTAYLQISSLKAEDTAVYYCATTIRAGGYFDFWGQGTLVTVSS
VL: DIQLTQSPSFLSASVGDRVTITCRASQGISSYLAWFQQKPGKAPKLLIYVVSILQSGVPSRFSGSGSGTEFTLTISSLQPEDFATYYCQQLNSYPYTFGQGTKLEIK
For the molecule B5, in experiment [1], the “Live Neut, WA1/2020 IC50 (pM)” value was determined as 9510 pM. This molecule came in with an EC50 in experiment [2] of 0.018 nM. This molecule had an IC50 in experiment [3] of 3.69 nM. In experiment [4], the affinity, expressed as Kd, was 2.54 nM.

B6: antibody 937 (antibody, V domains shown)
VH: EVQLVESGGGLVQPGRSLRLSCAASGFTFDDYAMHWVRQAPGKGLEWVSGISWNSGSIGYADSVKGRFTISRDNAKNSLYLQMNSLKPEDTALYYCAKSTTSCYNGSQCPTKRPKPLESWGQGTLVIVSA
VL: DIQMTQSPSTLSAFVGDRVTITCRASQSINNWLAWYQQKPGEVPKLLIYKASSLENGVPSRFSGSGFGTEFTLTISSLQPDDFAIYYCQQYYSHSHTFGQGTKLEIK
In the case of B6, the “Live Neut, WA1/2020 IC50 (pM)” value in experiment [1] was 140 pM.

B7: antibody 935 (antibody, V domains shown)
VH: EVQLVESGGGLVQPGGSLRLSCAASGFTVSSNYMSWVRQAPGKGLEWVSVIYSGGSTFYADSVKGRFTISRDNSRNTLYLQMNSLRAEDTAVYYCARDWGEFFFDFWGQGALVTVSS
VL: EIVLTQSPGTLSLSPGERATLSCRASQTISSSYLAWYQQKPGQAPRLLISGASSRATGIPDRFSGSGSGTDFTLTISRLEPEDFAVYYCQQYGSSPRTFGQGTNVEIK
Regarding B7, the “Pseudo Neut, B1.1.7 IC50 (pM)” value in experiment [5] was 1170 pM. For the same molecule, the “Live Neut, WA1/2020 IC50 (pM)” value in experiment [1] came out at 64 pM. In addition, the EC50 in experiment [2] was 0.024 nM. Moreover, the IC50 in experiment [3] came out at 0.83 nM. The molecule also registered a Kd in experiment [4] of 0.406 nM.

B8: antibody 1671 (antibody, V domains shown)
VH: EVQLVESGGGLVKPGGSLRLSCAASGFTFSTYNMNWVRQAPGKGLEWVSSISSNSNYIYYADSMKGRFTISRDNAKNSLYLQMNSLRAEDTAVYYCARDMDPLPYFDWLLYAFDVWGQGTMVTVSS
VL: EIVLTQSPGTLSLSPGERATLSCRASQSVSGSYLAWYQQKPGQAPRLLIYGASSRATGIPDRFSGSGSGTDFTLTISRLEPEDFAVYYCQQYGSPIFTFGPGTKVDIK
For B8, the “Live Neut, WA1/2020 IC50 (pM)” value in experiment [1] is 9 pM.

B9: antibody 2598 (antibody, V domains shown)
VH: QVQLQESGPGLVKPSGTLSLTCVVSGGSISSSNWWSWVRQPPGKGLEWIGETFHSGSFNYNPSLKSRVTISVDKSKNQFSLKLSSVTAADTAIYYCATTRVGYEGHFYYYGMDVWGQGTTVTVSS
VL: DIQMTQSPSSVSASVGDRVTITCRASQGISSWLAWYQQKPGKAPKLLIYAASSLQSGVPSRFSGSGSGTDFTLTISSLQPEDFATYYCQQANRFPWTFGQGTKVEIK
On to B9, for which the “Live Neut, WA1/2020 IC50 (pM)” value in experiment [1] is 586 pM.

B10: antibody 2025 (antibody, V domains shown)
VH: QVQLVQSGAEVKKPGASVKVSCKVSGYTLIELSMHWVRQAPGKGLEWMGGFDPEDVETIYAQKFQGRVTMTEDTSTDTAYMELSSLRSEDTAVYYCATAYAVQWRGMIGYWGQGTLVTVSS
VL: QSALTQPASVSGSPGQSITISCTGTSSDVGSYNLVSWYQQHPGKAPKLMIYEVSKRPSGVSNRFSGSKSGNTASLTISGLQAEDEADYYCSSYAGSSTFSYVFGTGTKVTVL
B10: the “Live Neut, WA1/2020 IC50 (pM)” value in experiment [1] was determined as 118 pM. Moreover, the half-maximal effective concentration (EC50) in experiment [2] came to 0.113 nM. For the same molecule, the affinity in experiment [4], expressed as Kd, was 7.13 nM.

B11: antibody 2080 (antibody, V domains shown)
VH: QVQLQQWGAGLLKPSETLSLTCAVYGGSFSGYYWSWIRQPPGKGLEWIGRINDIGSTDYNPSLKSRVTISVDTSKNQFSLKLTSVTAADTAVYYCAREPFDSEGTFDYWGQGTLVIVSS
VL: DIQMTQPPSTLSASVGDRVTITCRASQSISRWLAWYRQKPGKAPKLLIYDASSLQSGVPSRFSGSGSGTEFTLTISSLQPDDLATYYCQQYNTYPYTFGQGTKLEIK
As to B11, the “Live Neut, WA1/2020 IC50 (pM)” value in experiment [1] is 169 pM.

B12: antibody 1213 (antibody, V domains shown)
VH: QMQLVQSGAEVKKTGSSVKVSCEASENTFTNRYLHWVRQAPGQALEWMGWITPFQGNTHYAQKFQDRVTITRDRSMNTVYMELSSLRSEDTAIYYCASGGQYGPGSYYFEFWGQGTLVTVSS
VL: EIVMTQSPATLSVSPGERATLSCRASQSIRNNLAWYRQKPGQAPRLLIYGASTRAAGVPARFSGSGSGTEFTLTISSLQSEDFAVYYCQQYINWPPLTFGGGTKVEIK
Regarding B12, in experiment [1], the “Live Neut, WA1/2020 IC50 (pM)” value stood at 2590 pM. This molecule also gave an EC50 in experiment [2] of 0.051 nM. In experiment [3], this molecule had an IC50 of 7.74 nM. Moreover, in experiment [4], the Kd amounted to 1.72 nM.

B13: antibody 1227 (antibody, V domains shown)
VH: QMQLVQSGAEVKKTGSSVKVSCEASGYTFTNRYLHWVRQAPGQALEWMGWITPFQGNTNYAQKFQDRVTITRDMSMNTVYMELSSLRSEDTAKYYCASGGQYGAGSYYLEDWGQGTLVTVSS
VL: EIVMTQSPATLSVSPGERATLSCRASQSVRSNLAWYRQKPGQAPRLLIYGASTRATGVPARFSGSGSGTEFTLTISSLQSEDFAVYYCQQYINWPPLTFGGGTRVEIK
For the molecule B13, the “Live Neut, WA1/2020 IC50 (pM)” value in experiment [1] amounted to 1490 pM. In addition, in experiment [2], it took 0.107 nM to reach a half-maximal effect (EC50). Also, the IC50 in experiment [3] turned out to be 14.5 nM. This molecule came in with a Kd in experiment [4] of 2.74 nM.

B14: antibody 2050 (antibody, V domains shown)
VH: QVQLVQSGAEVKKPGASVKVPCKVSGYTFTDHFIHWVRQAPGQGLEWMGWISPNSGGRNYTQKFQGRVTLTRDTAITTVHMDLSSLTPDDTAVYYCARDVRWAQLQGGFDLWGQGTMVTVSS
VL: QSALTQPASVSGSPGQSITISCTGTSSDVGSYNLVSWYQQHPGKAPKLMIYEVSKRPSGVSNRFSGSKSGNTASLTISGLQADDEADYYCCSYAGDNNFLFGGGTSLTVL
On to B14, for which the “Pseudo Neut, B1.1.7 IC50 (pM)” value in experiment [5] came to 200 pM. Moreover, the “Live Neut, WA1/2020 IC50 (pM)” value in experiment [1] was 36 pM. Besides, the response in experiment [2] was half-maximal at 0.025 nM (EC50). This molecule also returned an IC50 in experiment [3] of 0.727 nM. For the same molecule, the Kd in experiment [4] was found to be 0.115 nM.

B15: antibody 941 (antibody, V domains shown)
VH: QVQLVQSGAEVKKPGSSVKVSCKASGGTFSNSAINWVRQAPGQGLEWMGGIIPLFGAADYAQKFQARVTITADKSTTTSYMELSSLRSEDTAVYYCARDTLEHDDVWGNFRLSLPLSFWGQGTLVTVSS
VL: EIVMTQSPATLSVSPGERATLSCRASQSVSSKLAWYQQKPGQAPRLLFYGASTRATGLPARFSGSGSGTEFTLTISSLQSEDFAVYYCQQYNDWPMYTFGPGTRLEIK
As to B15, the “Pseudo Neut, B1.1.7 IC50 (pM)” value in experiment [5] is 533 pM. Further, in experiment [1], the “Live Neut, WA1/2020 IC50 (pM)” value is 24 pM. Besides, the EC50 in experiment [2] was 0.024 nM. This molecule also registered an IC50 in experiment [3] of 0.96 nM. This molecule also gave a Kd in experiment [4] of 0.062 nM.

B16: antibody 1439 (antibody, V domains shown)
VH: QVQLQESGPGLVKPSETLSLTCTVSGDSISTYYWSWIRQPPGKGLEWIGYIHYSGSTNYNPSLKSRVAVSVDTSKNQFSLKLSSVTAADTAVYYCARGGGVFGVVINFDYWGQGILVTVSS
VL: NFMLTQPYSVSESPGKTVTISCTRSSGSIASNYVQWYQQRPGSAPTTVIYEDNQRPSGVPDRFSGSIDSSSNSASLTISGLKTEDEADYYCQSRDSSNPVVFGGGTKLTVL
Regarding B16, the EC50 in experiment [2] came to 0.0099 nM. For the same molecule, the IC50 in experiment [3] turned out to be 0.117 nM. This molecule also displayed a Kd in experiment [4] of 0.0176 nM.

B17: antibody 767 (antibody, V domains shown)
VH: QVQVVQSGAEVKKPGASVKVSCTASGHTFTGYAIHWVRQAPGQRLEWMGLINAGGIYRTYSQRFQGRVTITRDTSASTAYMELTGLTSEDTAVYYCARANYGSGSFSDHWGQGTLVTVSS
VL: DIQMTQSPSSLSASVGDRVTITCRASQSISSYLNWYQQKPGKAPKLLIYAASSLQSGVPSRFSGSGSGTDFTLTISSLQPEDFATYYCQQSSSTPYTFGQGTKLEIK
Regarding B17, in experiment [1], the “Live Neut, WA1/2020 IC50 (pM)” value came out at 1730 pM. In experiment [2], this molecule registered a concentration for a half-maximal effect (EC50) of 3.47 nM. This molecule also displayed an IC50 in experiment [3] of 20.9 nM. The molecule further returned a Kd in experiment [4] of 24.3 nM.

B18: antibody 2432 (antibody, V domains shown)
VH: QVQLVQSGAEVKKPGSSVKVSCKASGDTFSSYAISWVRQAPGQGLEWLGGIIPIFGSADYAQKFQGRVTITADEFTSTAYMELSSLRSEDTAVYFCAREKYGDYGEGPLYNFDYWGQGTLVTVSS
VL: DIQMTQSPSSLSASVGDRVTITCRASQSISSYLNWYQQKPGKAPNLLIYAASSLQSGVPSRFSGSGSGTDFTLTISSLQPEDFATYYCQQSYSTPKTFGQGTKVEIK
For B18, the “Live Neut, WA1/2020 IC50 (pM)” value in experiment [1] was determined as 26 pM.
